{"source": "patent US7402575B2", "about": "“Methods of treating inflammation” (priority 2003, dated 2008)", "molecules": {"B1": {"name": "Proteinase K: nonspecific proteolytic enzyme attached to beaded agarose (protein, UniProt P06873 106-384, looked up)", "Proteinase K": "AAQTNAPWGLARISSTSPGTSTYYYDESAGQGSCVYVIDTGIEASHPEFEGRAQMVKTYYYSSRDGNGHGTHCAGTVGSRTYGVAKKTQLFGVKVLDDNGSGQYSTIIAGMDFVASDKNNRNCPKGVVASLSLGGGYSSSVNSAAARLQSSGVMVAVAAGNNNADARNYSPASEPSVCTVGASDRYDRRSSFSNYGSVLDIFGPGTSILSTWIGGSTRSISGTSMATPHVAGLAAYLMTLGKTTAASACRYIADTANKGDLSNIPFGTVNLLAYNNYQA", "modifications": "attached to agarose beads"}}, "target": "T1, lysozyme c (Lzm-S) (Canis lupus familiaris, UniProt P81709)", "T1 construct": "Lzm-S was purified in a manner described by Grobler et al (14); from tissue", "T1 sequence (P81709 1-130)": "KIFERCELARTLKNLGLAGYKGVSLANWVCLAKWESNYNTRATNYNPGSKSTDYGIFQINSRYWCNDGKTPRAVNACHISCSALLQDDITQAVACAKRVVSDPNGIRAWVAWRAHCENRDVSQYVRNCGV", "experiment": "Effect of enzyme treatment (of Lzm-S or of the trabeculae) on Lzm-S's depressant effect in right ventricular trabecular preparation", "type": "cell-based, dog", "experimental": "In subsequent experiments, the objective was to determine whether pretreatment of Lzm-S with the proteolytic enzyme proteinase-K reduced the extent to which myocardial depression developed in the in vitro preparation (7). Proteinase-K (attached to beaded agarose; Sigma Chemical, St Louis, Mo.) was added to the pure Lzm-S preparation. The effects of proteinase-K treated and nontreated Lzm-S on isometric tension were compared between the samples. Since proteinase-K is a non-specific proteolytic enzyme, a specific competitive inhibitor of lysozyme, TAC (chitotriose) was subsequently examined to determine whether it prevented the depression in isometric tension observed in the in vitro preparation (16,17).\nRegardless of the type of carbohydrate structure to which Lzm-S may bind, it is possible to deglycosylate the carbohydrate structure by means of exoglycosidases in which a specific sugar residue is removed from the terminal end of the carbohydrate tree (47). […] In group 2, the trabeculae were initially bathed in sialidase (60 μl; 5 U/ml) for two hours to remove any N-acetylneuramic acid (NeuNAc) residues, after which the effect of Lzm-S was determined (all kits from Prozyme, San Leandro, Calif.; kit GE 23; Sialidase A). […]", "data": [{"molecule": "B1", "values": [{"measurement": "Effect of enzyme treatment on Lzm-S's depressant activity", "result": "reduction in depressant activity"}]}]}
